Results from paper PMC5524982.

Assays:
[1] = molecular target: Proteus mirabilis ScsC (PmScsC), wild type, lacking the predicted secretion signal (Proteus mirabilis); test: SEC-MALS; Superdex 200 or Superdex 75 10/300 GL, 25 mM Tris, 150 mM NaCl, pH 7.5; 500 μl of 3 mg ml^-1 injected, 1.0 ml min^-1
[2] = molecular target: Proteus mirabilis ScsC (PmScsC), wild type, lacking the predicted secretion signal (Proteus mirabilis); test: SAXS; reduced PmScsC in 25 mM HEPES pH 7.5, 150 mM NaCl, 1 mM DTT; Australian Synchrotron SAXS-WAXS beamline; also pH 6.0-8.0 and 150-1,500 mM NaCl
[3] = molecular target: Proteus mirabilis ScsC (PmScsC), wild type, lacking the predicted secretion signal (Proteus mirabilis); test: cross-linking; 150 μM purified PmScsC in 50 mM HEPES pH 8.5 with 3 mM DTSSP, 30 s–30 min, 23 °C; non-reducing SDS-PAGE, Coomassie; 50 mM DTT as control cleaves the cross-links
[4] = molecular target: Proteus mirabilis ScsC (PmScsC), wild type, lacking the predicted secretion signal (Proteus mirabilis); test: crystal structure; transitional structure: oxidized PmScsC, 2.85 M sodium malonate pH 5.8 with 0.1 M copper(II) chloride, 20 °C; 6 molecules (two trimers) in the asymmetric unit
[5] = molecular target: Proteus mirabilis ScsC (PmScsC), wild type, lacking the predicted secretion signal (Proteus mirabilis); test: crystal structure; extended structure: oxidized PmScsC with 2.5 mM copper(II) chloride, 32% Jeffamine M-600 pH 7, 0.1 M HEPES pH 8, 20 °C; one molecule in the asymmetric unit, trimer generated by crystal symmetry
[6] = molecular target: Selenomethionine-labelled PmScsC (Proteus mirabilis); test: crystal structure; compact structure: selenomethionine-labelled PmScsC, 2.85 M sodium malonate pH 5.8 with 0.1 M cobalt(II) chloride, 20 °C; 24 copies (8 trimers) in the asymmetric unit

Measured: stoichiometry N

Proteus mirabilis ScsC (PmScsC), wild type, lacking the predicted secretion signal (enzyme)
not listed: [6]
3: all other assays above

Selenomethionine-labelled PmScsC (enzyme)
3: [6]
